Experimental data from EP3088890B1 (Chugai Seiyaku Kabushiki Kaisha, dated 2020).

Tests used:
[1] = biological target: T1, GPC3 peptide 141-170 (SEQ ID NO: 8) (human); experiment: peptide ELISA, peptide on plate
T1 construct: Synthetic 30-residue peptide of GPC3
T1 peptide: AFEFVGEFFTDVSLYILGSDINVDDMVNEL

[2] = biological target: T2, GPC3 peptide 81-110 (SEQ ID NO: 5) (human); experiment: peptide ELISA, peptide on plate
T2 construct: Synthetic 30-residue peptide of GPC3
T2 peptide: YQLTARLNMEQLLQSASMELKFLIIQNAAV

[3] = biological target: T3, GPC3 peptide 321-350 (SEQ ID NO: 17) (human); experiment: peptide ELISA, peptide on plate
T3 construct: Synthetic 30-residue peptide of GPC3
T3 peptide: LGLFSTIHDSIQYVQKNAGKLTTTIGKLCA

[4] = biological target: T4, GPC3 peptide 61-90 (SEQ ID NO: 4) (human); experiment: peptide ELISA, peptide on plate
T4 construct: Synthetic 30-residue peptide of GPC3
T4 peptide: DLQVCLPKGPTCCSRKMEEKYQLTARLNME

[5] = biological target: T5, GPC3 peptide 1-30 (SEQ ID NO: 1) (human); experiment: peptide ELISA, peptide on plate
T5 construct: Synthetic 30-residue peptide of GPC3
T5 peptide: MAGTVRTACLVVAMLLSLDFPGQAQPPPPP

[6] = biological target: T6, GPC3 peptide 181-210 (SEQ ID NO: 10) (human); experiment: peptide ELISA, peptide on plate
T6 construct: Synthetic 30-residue peptide of GPC3
T6 peptide: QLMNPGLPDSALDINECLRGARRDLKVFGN

[7] = biological target: T7, GPC3 peptide 41-70 (SEQ ID NO: 3) (human); experiment: peptide ELISA, peptide on plate
T7 construct: Synthetic 30-residue peptide of GPC3
T7 peptide: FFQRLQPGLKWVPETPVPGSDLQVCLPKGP

[8] = biological target: T8, GPC3 peptide 261-290 (SEQ ID NO: 14) (human); experiment: peptide ELISA, peptide on plate
T8 construct: Synthetic 30-residue peptide of GPC3
T8 peptide: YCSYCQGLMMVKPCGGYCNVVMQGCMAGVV

[9] = biological target: T9, GPC3 peptide 541-570 (SEQ ID NO: 28) (human); experiment: peptide ELISA, peptide on plate
T9 construct: Synthetic 30-residue peptide of GPC3
T9 peptide: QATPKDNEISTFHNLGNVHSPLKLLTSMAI

[10] = biological target: T10, GPC3 peptide 501-530 (SEQ ID NO: 26) (human); experiment: peptide ELISA, peptide on plate
T10 construct: Synthetic 30-residue peptide of GPC3
T10 peptide: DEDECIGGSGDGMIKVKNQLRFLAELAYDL

[11] = biological target: T11, GPC3 peptide 481-510 (SEQ ID NO: 25) (human); experiment: peptide ELISA, peptide on plate
T11 construct: Synthetic 30-residue peptide of GPC3
T11 peptide: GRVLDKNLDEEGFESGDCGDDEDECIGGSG

[12] = biological target: T12, GPC3 peptide 521-550 (SEQ ID NO: 27) (human); experiment: peptide ELISA, peptide on plate
T12 construct: Synthetic 30-residue peptide of GPC3
T12 peptide: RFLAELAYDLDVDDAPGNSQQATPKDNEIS

[13] = biological target: T13, GPC3 peptide 21-50 (SEQ ID NO: 2) (human); experiment: peptide ELISA, peptide on plate
T13 construct: Synthetic 30-residue peptide of GPC3
T13 peptide: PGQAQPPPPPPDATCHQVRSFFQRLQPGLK

[14] = biological target: T14, GPC3 peptide 421-450 (SEQ ID NO: 22) (human); experiment: peptide ELISA, peptide on plate
T14 construct: Synthetic 30-residue peptide of GPC3
T14 peptide: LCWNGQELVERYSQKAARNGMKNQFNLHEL

[15] = biological target: T15, GPC3 peptide 221-250 (SEQ ID NO: 12) (human); experiment: peptide ELISA, peptide on plate
T15 construct: Synthetic 30-residue peptide of GPC3
T15 peptide: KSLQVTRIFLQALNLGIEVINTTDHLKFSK

[16] = biological target: T16, GPC3 peptide 241-270 (SEQ ID NO: 13) (human); experiment: peptide ELISA, peptide on plate
T16 construct: Synthetic 30-residue peptide of GPC3
T16 peptide: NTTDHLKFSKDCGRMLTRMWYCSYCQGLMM

[17] = biological target: T17, GPC3 peptide 401-430 (SEQ ID NO: 21) (human); experiment: peptide ELISA, peptide on plate
T17 construct: Synthetic 30-residue peptide of GPC3
T17 peptide: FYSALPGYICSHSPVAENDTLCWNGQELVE

[18] = biological target: T18, GPC3 peptide 281-310 (SEQ ID NO: 15) (human); experiment: peptide ELISA, peptide on plate
T18 construct: Synthetic 30-residue peptide of GPC3
T18 peptide: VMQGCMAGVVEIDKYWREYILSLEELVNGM

[19] = biological target: T19, GPC3 peptide 461-490 (SEQ ID NO: 24) (human); experiment: peptide ELISA, peptide on plate
T19 construct: Synthetic 30-residue peptide of GPC3
T19 peptide: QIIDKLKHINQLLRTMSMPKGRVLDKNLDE

[20] = biological target: T20, GPC3 peptide 341-370 (SEQ ID NO: 18) (human); experiment: peptide ELISA, peptide on plate
T20 construct: Synthetic 30-residue peptide of GPC3
T20 peptide: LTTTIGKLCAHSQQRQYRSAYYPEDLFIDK

[21] = biological target: T21, GPC3 peptide 121-150 (SEQ ID NO: 7) (human); experiment: peptide ELISA, peptide on plate
T21 construct: Synthetic 30-residue peptide of GPC3
T21 peptide: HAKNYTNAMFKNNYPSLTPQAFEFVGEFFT

[22] = biological target: T22, GPC3 peptide 551-580 (SEQ ID NO: 29) (human); experiment: peptide ELISA, peptide on plate
T22 construct: Synthetic 30-residue peptide of GPC3
T22 peptide: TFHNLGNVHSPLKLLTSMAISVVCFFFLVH

[23] = biological target: T23, GPC3 peptide 381-410 (SEQ ID NO: 20) (human); experiment: peptide ELISA, peptide on plate
T23 construct: Synthetic 30-residue peptide of GPC3
T23 peptide: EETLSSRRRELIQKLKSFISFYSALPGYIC

[24] = biological target: T24, GPC3 peptide 361-390 (SEQ ID NO: 19) (human); experiment: peptide ELISA, peptide on plate
T24 construct: Synthetic 30-residue peptide of GPC3
T24 peptide: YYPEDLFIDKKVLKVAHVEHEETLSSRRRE

[25] = biological target: T25, GPC3 peptide 441-470 (SEQ ID NO: 23) (human); experiment: peptide ELISA, peptide on plate
T25 construct: Synthetic 30-residue peptide of GPC3
T25 peptide: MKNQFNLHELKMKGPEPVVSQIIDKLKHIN

[26] = biological target: T26, GPC3 peptide 101-130 (SEQ ID NO: 6) (human); experiment: peptide ELISA, peptide on plate
T26 construct: Synthetic 30-residue peptide of GPC3
T26 peptide: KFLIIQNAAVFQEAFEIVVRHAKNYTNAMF

[27] = biological target: T27, GPC3 peptide 161-190 (SEQ ID NO: 9) (human); experiment: peptide ELISA, peptide on plate
T27 construct: Synthetic 30-residue peptide of GPC3
T27 peptide: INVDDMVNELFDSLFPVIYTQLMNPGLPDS

[28] = biological target: T28, AW3, C-terminally His-tagged recombinant product of positions 1 to 218 of GPC3 (human, UniProt P51654 25-218); experiment: Western blot, pellets of CHO cells expressing the product
T28 construct: Expressed in CHO cells, cell pellets used in Western blot; The range is as printed and starts at position 1; not shown: C-terminal His tag

[29] = biological target: T29, AW2, C-terminally His-tagged recombinant product of positions 1 to 196 of GPC3 (human, UniProt P51654 25-196); experiment: as above
T29 construct: Expressed in CHO cells, cell pellets used in Western blot; The range is as printed and starts at position 1; also called AW2 (1-196); not shown: C-terminal His tag
T29 sequence (P51654 25-196): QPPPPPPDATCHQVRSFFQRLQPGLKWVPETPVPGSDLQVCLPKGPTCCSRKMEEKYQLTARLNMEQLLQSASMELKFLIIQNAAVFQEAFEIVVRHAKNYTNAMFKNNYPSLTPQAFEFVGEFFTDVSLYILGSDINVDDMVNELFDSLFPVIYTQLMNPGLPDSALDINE

T28 sequence (P51654 25-218): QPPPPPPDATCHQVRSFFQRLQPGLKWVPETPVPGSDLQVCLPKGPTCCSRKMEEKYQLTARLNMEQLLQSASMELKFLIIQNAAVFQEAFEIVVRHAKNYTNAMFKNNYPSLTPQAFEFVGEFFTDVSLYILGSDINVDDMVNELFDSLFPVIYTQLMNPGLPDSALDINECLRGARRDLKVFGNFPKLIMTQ

B1: GT165 antibody (antibody, IgG1, V domains shown)
VH: QVQLQQSGAELVGPGASVKISCKAFGYTFTNHHINWVKQRPGQGLDWIGYINPYNDYTNYNQKFKGKATLTVDKSSSTAYMELSSLTSEDSAVYYCARSDPAWFAYWGQGTLVTVSA
VL: DIQMTQSPSSLSASLGGKVTITCKASQDINKNIAWYQHKPGKGPRLLIWYTYTLQPGIPSRFSGSGSGRDYSFSISNLEPEDIATYYCLQYDNLPFTFGTGTKLEIKR
B1: no binding (tested: 2 µg/mL) [1]; no binding (tested: 2 µg/mL) [2]; no binding (tested: 2 µg/mL) [3]. B1: no binding (tested: 2 µg/mL) [4]; no binding (tested: 2 µg/mL) [5]; no binding (tested: 2 µg/mL) [6]. B1: no binding (tested: 2 µg/mL) [7]; no binding (tested: 2 µg/mL) [8]; no binding (tested: 2 µg/mL) [9]. B1: no binding (tested: 2 µg/mL) [10]; no binding (tested: 2 µg/mL) [11]; no binding (tested: 2 µg/mL) [12]. B1: no binding (tested: 2 µg/mL) [13]; no binding (tested: 2 µg/mL) [14]; no binding (tested: 2 µg/mL) [15]. B1: no binding (tested: 2 µg/mL) [16]; no binding (tested: 2 µg/mL) [17]; no binding (tested: 2 µg/mL) [18]. B1: no binding (tested: 2 µg/mL) [19]; no binding (tested: 2 µg/mL) [20]; no binding (tested: 2 µg/mL) [21]. B1: no binding (tested: 2 µg/mL) [22]; no binding (tested: 2 µg/mL) [23]; no binding (tested: 2 µg/mL) [24]. B1: no binding (tested: 2 µg/mL) [25]; no binding (tested: 2 µg/mL) [26]; no binding (tested: 2 µg/mL) [27]. B1: no binding [28]; no binding [29].
